From patent publication US20240307489A1 (WESTLAKE UNIVERSITY, published 2024) come the findings set out here.

In this assay the target is T1, LRP1 (low density lipoprotein receptor-related protein 1), endogenous in HEK293T cells (human, UniProt Q07954 20-4544).
T1 construct: Endogenous protein in HEK293T lysates (TAP-MS prey, co-IP); also called endogenous LRP1
Kind of assay: TAP-MS of SFB-tagged Notch pathway proteins in HEK293T cells. As to the method: We picked 12 clones of each bait for the follow-up experiments and confirmed the bait protein expression and localization using Western blotting and immunostaining, respectively. From which, we chose two clones of each bait with the correct subcellular localization and a moderate expression close to that of endogenous one as biological repeat for TAP-MS analysis. HEK293T cells stably expressing C-terminal SFB-fused Notch pathway proteins were selected via culture in medium containing 2 μg/ml puromycin. Protein expression was confirmed via immunostaining and Western blotting as described previously (Wang, W., Li, X., Huang, J., Feng, L., Dolinta, K. G., and Chen, J. (2014). Defining the protein-protein interaction network of the human hippo pathway. Mol Cell Proteomics 13, 119-131.).
For TAP experiments, the membrane-bound and soluble proteins of 2×10⁸ HEK293T cells were extracted using a membrane/soluble protein isolation kit (Beyotime, China) with protease inhibitors at 4° C. The insoluble pellets from the crude lysis step were briefly sonicated and incubated with TurboNuclease for 30 min at 37° C. with occasional vortexing to extract chromatin-bound protein complexes. The lysates were then centrifuged at 14,000 rpm for 30 min at 4° C., and the supernatant was collected as a chromatin fraction. […]

T1 sequence (Q07954 20-4544 limits assumed): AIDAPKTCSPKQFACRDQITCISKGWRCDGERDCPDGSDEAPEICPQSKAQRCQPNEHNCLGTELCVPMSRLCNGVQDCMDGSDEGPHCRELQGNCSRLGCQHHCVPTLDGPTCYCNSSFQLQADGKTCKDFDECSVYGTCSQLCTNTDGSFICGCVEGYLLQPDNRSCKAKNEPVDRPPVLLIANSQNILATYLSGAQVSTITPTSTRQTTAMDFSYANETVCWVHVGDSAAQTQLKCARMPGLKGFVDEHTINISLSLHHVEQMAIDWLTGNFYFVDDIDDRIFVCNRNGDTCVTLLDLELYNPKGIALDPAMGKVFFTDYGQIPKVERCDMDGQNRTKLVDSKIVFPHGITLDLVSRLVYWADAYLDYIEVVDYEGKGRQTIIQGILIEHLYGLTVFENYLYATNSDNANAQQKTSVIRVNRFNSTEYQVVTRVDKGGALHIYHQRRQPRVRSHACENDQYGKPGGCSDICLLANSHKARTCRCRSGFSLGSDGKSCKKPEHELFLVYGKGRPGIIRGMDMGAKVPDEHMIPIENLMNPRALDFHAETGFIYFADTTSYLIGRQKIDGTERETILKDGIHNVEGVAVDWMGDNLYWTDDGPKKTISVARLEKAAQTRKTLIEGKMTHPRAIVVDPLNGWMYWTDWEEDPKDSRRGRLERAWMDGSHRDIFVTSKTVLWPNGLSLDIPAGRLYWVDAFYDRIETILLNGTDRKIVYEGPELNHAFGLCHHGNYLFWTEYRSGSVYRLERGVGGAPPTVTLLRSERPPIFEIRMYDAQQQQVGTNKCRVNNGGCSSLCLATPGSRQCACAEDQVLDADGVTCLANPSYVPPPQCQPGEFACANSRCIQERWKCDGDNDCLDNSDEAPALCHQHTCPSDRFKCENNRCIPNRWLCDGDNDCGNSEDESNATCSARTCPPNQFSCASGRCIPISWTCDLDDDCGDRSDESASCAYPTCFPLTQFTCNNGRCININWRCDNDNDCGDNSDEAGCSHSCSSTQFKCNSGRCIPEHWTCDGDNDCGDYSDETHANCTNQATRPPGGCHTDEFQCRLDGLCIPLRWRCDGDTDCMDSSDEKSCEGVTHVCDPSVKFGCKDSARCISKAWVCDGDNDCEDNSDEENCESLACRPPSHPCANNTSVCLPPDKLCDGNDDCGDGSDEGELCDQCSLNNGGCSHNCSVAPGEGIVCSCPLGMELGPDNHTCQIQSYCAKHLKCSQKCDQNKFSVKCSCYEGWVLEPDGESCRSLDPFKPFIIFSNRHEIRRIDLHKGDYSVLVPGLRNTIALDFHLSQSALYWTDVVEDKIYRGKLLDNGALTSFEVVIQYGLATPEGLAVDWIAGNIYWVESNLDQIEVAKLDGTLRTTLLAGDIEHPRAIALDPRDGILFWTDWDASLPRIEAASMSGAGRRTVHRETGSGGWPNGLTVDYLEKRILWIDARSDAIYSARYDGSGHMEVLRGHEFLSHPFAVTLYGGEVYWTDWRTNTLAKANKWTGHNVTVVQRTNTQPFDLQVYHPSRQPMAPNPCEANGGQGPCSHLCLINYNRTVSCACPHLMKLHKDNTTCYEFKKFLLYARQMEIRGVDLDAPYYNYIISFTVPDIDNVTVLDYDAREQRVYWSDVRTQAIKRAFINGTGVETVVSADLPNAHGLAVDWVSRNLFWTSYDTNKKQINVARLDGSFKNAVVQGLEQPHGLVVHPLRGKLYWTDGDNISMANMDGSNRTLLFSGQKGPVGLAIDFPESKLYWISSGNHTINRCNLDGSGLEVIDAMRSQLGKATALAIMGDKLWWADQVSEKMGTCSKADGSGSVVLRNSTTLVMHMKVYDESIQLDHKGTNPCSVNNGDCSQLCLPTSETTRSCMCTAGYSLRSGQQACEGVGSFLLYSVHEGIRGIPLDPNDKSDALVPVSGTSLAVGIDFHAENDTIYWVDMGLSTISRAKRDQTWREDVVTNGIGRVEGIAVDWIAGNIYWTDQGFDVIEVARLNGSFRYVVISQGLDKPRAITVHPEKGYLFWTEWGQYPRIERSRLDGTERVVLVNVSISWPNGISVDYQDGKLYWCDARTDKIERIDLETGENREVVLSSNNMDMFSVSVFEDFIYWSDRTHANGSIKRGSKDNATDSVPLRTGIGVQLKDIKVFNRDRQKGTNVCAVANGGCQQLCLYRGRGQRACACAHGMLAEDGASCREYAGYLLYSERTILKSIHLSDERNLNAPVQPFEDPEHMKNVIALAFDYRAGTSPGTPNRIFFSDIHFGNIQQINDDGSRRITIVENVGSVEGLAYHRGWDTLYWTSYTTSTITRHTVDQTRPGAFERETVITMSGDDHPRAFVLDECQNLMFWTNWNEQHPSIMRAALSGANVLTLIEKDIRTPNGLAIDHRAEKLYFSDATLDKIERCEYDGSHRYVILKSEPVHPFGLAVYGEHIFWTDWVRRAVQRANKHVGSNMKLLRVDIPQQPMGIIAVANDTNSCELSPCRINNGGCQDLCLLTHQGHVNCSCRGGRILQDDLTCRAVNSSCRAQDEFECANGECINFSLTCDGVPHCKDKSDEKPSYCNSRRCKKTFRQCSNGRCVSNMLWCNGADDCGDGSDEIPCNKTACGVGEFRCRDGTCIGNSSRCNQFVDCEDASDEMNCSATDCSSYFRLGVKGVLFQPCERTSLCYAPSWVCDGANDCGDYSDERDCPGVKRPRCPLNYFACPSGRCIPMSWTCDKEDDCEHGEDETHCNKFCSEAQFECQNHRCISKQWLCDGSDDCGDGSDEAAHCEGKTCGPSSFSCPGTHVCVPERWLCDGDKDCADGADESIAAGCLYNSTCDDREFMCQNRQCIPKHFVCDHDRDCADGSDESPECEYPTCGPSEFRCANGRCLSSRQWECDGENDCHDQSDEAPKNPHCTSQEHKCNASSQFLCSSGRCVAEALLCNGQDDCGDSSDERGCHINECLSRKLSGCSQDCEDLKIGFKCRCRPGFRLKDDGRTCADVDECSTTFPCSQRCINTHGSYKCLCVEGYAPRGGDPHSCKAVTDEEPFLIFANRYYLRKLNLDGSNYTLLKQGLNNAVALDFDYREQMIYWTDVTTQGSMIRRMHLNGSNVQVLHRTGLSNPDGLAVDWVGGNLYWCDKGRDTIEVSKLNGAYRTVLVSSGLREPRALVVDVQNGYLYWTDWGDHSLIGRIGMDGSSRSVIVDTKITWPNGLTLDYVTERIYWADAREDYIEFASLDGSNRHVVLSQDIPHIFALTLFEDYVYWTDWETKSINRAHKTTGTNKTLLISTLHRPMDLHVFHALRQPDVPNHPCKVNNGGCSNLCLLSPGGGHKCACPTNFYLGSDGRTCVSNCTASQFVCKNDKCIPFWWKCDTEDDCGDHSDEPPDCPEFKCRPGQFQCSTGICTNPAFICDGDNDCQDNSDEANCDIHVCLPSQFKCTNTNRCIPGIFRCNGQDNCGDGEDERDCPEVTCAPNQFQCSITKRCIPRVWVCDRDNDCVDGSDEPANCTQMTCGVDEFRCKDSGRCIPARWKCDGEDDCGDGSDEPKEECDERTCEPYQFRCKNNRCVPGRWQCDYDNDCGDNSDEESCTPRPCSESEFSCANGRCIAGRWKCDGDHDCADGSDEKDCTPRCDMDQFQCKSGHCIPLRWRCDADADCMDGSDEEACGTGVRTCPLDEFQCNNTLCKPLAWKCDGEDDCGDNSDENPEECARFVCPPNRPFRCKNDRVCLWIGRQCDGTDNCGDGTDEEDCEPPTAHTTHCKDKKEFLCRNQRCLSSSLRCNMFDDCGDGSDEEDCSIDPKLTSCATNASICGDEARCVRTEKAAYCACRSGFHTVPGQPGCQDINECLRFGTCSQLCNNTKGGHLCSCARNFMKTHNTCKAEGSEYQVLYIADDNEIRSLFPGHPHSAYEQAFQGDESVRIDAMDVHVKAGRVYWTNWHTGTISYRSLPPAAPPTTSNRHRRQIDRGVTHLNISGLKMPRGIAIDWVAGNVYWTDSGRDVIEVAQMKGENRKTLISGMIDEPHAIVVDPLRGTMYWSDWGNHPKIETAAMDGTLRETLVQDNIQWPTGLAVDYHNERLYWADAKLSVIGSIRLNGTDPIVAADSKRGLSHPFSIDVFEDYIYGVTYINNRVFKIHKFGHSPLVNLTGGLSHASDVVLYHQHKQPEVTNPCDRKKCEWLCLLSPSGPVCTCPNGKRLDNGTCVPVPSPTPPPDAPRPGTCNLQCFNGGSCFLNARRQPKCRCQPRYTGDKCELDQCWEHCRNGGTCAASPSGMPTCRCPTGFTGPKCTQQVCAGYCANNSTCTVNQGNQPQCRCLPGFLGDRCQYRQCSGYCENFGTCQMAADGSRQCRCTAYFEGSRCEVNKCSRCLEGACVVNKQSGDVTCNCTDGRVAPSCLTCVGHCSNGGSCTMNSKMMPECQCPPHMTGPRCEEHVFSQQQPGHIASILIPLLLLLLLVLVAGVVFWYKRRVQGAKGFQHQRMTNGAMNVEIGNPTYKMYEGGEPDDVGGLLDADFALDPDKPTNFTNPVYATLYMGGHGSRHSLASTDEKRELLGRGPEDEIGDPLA

B1: cSFB-tagged wild-type DLL3 (ligand, human, UniProt Q9NYJ7 27-618, looked up)
chain: AGVFELQIHSFGPGPGPGAPRSPCSARLPCRLFFRVCLKPGLSEEAAESPCALGAALSARGPVYTEQPGAPAPDLPLPDGLLQVPFRDAWPGTFSFIIETWREELGDQIGGPAWSLLARVAGRRRLAAGGPWARDIQRAGAWELRFSYRARCEPPAVGTACTRLCRPRSAPSRCGPGLRPCAPLEDECEAPLVCRAGCSPEHGFCEQPGECRCLEGWTGPLCTVPVSTSSCLSPRGPSSATTGCLVPGPGPCDGNPCANGGSCSETPRSFECTCPRGFYGLRCEVSGVTCADGPCFNGGLCVGGADPDSAYICHCPPGFQGSNCEKRVDRCSLQPCRNGGLCLDLGHALRCRCRAGFAGPRCEHDLDDCAGRACANGGTCVEGGGAHRCSCALGFGGRDCRERADPCAARPCAHGGRCYAHFSGLVCACAPGYMGARCEFPVHPDGASALPAAPPGLRPGDPQRYLLPPALGLLVAAGVAGAALLLVHVRRRGHSQDAGSRLLAGTPEPSVHALPDALNNLRTQEGSGDGPSSSVDWNRPEDVDPQGIYVISAPSIYAREVATPLFPPLHTGRAGQRQHLLFPYPSSILSVK
notes: Expressed in HEK293T cells, pulled down on S beads; also called cSFB-DLL3; C-terminal SFB-fused DLL3; not shown: C-terminal SFB triple tag (S protein tag-2xFLAG tag-SBP tag)
For B1, the binding result is listed as “binds”.
